Assay results published in patent publication US20240309103A1 (Regeneron, published 2024).

Tests used:
[1] = biological target: T1, hNPR1-mFc:hANP or hNPR1-hFc:hANP complex (human, UniProt P01160 124-151); experiment: SPR, mAb captured, 25C
T1 construct: also called human NPR1 complexed to ANP
Procedure: (§1) Equilibrium dissociation constant (KD) for different NPR1 reagents binding to purified anti-NPR1 monoclonal antibodies (mAbs) were determined using a real-time surface plasmon resonance based Biacore 4000 biosensor. All binding studies were performed in 10 mM HEPES, 150 mM NaCl, 3 mM EDTA, and 0.05% v/v Surfactant Tween-20, pH 7.4 (HBS-ET) running buffer at 25° C. and 37° C. The Biacore CM5 sensor chip surface was first derivatized by amine coupling with either mouse anti-human Fc specific mAb (GE Healthcare, #BR100839) or goat anti-human Fcy specific polyclonal antibody (Jackson ImmunoResearch Laboratories, #BR-1008-39) to capture anti-NPR1 mAbs.

hNPR1-mFc:hBNP complex [2] = biological target: T2, hNPR1-mFc:hBNP complex (human, UniProt P16860 103-134); experiment: SPR, mAb captured, 25C
T2 construct: also called human NPR1 complexed to BNP
Procedure: as §1

mfNPR1-mFc [3] = biological target: T3, mfNPR1-mFc (monkey); experiment: SPR, mAb captured, 25C
T3 construct: also called dimeric monkey NPR1
T3 chain: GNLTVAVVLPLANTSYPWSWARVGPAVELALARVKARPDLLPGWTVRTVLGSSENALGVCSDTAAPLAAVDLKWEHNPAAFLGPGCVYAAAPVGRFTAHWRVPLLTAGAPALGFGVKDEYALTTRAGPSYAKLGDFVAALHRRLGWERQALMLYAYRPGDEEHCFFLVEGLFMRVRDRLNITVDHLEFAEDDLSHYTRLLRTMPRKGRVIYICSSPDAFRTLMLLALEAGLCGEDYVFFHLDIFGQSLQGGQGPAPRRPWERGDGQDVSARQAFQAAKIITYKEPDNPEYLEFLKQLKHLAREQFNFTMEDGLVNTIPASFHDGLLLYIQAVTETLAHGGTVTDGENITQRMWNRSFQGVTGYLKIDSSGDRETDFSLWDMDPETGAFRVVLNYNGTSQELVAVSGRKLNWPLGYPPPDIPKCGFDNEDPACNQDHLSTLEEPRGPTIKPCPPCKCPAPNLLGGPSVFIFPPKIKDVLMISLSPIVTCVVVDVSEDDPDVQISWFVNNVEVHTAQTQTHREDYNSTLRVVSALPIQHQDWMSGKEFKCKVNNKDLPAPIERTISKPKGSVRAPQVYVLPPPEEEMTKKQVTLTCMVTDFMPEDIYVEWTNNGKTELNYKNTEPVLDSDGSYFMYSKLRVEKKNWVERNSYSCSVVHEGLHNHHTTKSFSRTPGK
Procedure: as §1

mfNPR1-mFc:hANP complex [4] = biological target: T4, mfNPR1-mFc:hANP complex (monkey; human, UniProt P01160 124-151); experiment: SPR, mAb captured, 25C
T4 construct: also called monkey NPR1 complexed to ANP
Procedure: as §1

mfNPR1-mFc:hBNP complex = biological target: T5, mfNPR1-mFc:hBNP complex (monkey; human, UniProt P16860 103-134); experiment: SPR, mAb captured, 25C
T5 construct: also called monkey NPR1 complexed to BNP
Procedure: as §1

[5] = biological target: T1, hNPR1-mFc:hANP or hNPR1-hFc:hANP complex; experiment: SPR, mAb captured, 37C
Procedure: as §1

hNPR1-mFc:hBNP complex [6] = biological target: T2, hNPR1-mFc:hBNP complex; experiment: SPR, mAb captured, 37C
Procedure: as §1

mfNPR1-mFc [7] = biological target: T3, mfNPR1-mFc; experiment: SPR, mAb captured, 37C
Procedure: as §1

mfNPR1-mFc:hANP complex [8] = biological target: T4, mfNPR1-mFc:hANP complex; experiment: SPR, mAb captured, 37C
Procedure: as §1

B1: mAb25498 (antibody, human IgG4, V domains shown)
VH: QVQLVESGGGVVQPGRSLRLSCVASGFTFSSYGMVWVRQTPGKGLEWVAVIWHDGTNNYYADSVKGRFTISRDNSKNTLYLQMNSLRAEDTAVYYCAREPWLVRGYYYYAMDVWGQGTTVTVSS
VL: not shown
[1]
  100 nM Ag Bound (RU): 52 RU
  Kd: 6.93 nM
  koff: 0.000317 s⁻¹
  kon: 45800 M⁻¹ s⁻¹
  t½: 0.607 h
hNPR1-mFc:hBNP complex [2]
  100 nM Ag Bound (RU): 55 RU
  Kd: 5.28 nM
  koff: 0.000256 s⁻¹
  kon: 48500 M⁻¹ s⁻¹
  t½: 0.752 h
mfNPR1-mFc [3]
  100 nM Ag Bound (RU): 128 RU
  Kd: 2.45 nM
  koff: 0.000177 s⁻¹
  kon: 72000 M⁻¹ s⁻¹
  t½: 1.09 h
mfNPR1-mFc:hANP complex [4]
  100 nM Ag Bound (RU): 81 RU
  Kd: 2.68 nM
  koff: 0.000112 s⁻¹
  kon: 41900 M⁻¹ s⁻¹
  t½: 1.72 h
mfNPR1-mFc:hBNP complex
  100 nM Ag Bound (RU): 81 RU
  Kd: 2.53 nM
  koff: 0.000109 s⁻¹
  kon: 43200 M⁻¹ s⁻¹
  t½: 1.77 h
[5]
  100 nM Ag Bound (RU): 74 RU
  Kd: 13.6 nM
  koff: 0.00072 s⁻¹
  kon: 53000 M⁻¹ s⁻¹
  t½: 0.267 h
hNPR1-mFc:hBNP complex [6]
  100 nM Ag Bound (RU): 76 RU
  Kd: 17.9 nM
  koff: 0.000948 s⁻¹
  kon: 52900 M⁻¹ s⁻¹
  t½: 0.203 h
mfNPR1-mFc [7]
  100 nM Ag Bound (RU): 170 RU
  Kd: 4.06 nM
  koff: 0.000372 s⁻¹
  kon: 91600 M⁻¹ s⁻¹
  t½: 0.518 h
mfNPR1-mFc:hANP complex [8]
  100 nM Ag Bound (RU): 114 RU
  Kd: 8.89 nM
  koff: 0.000445 s⁻¹
  kon: 50100 M⁻¹ s⁻¹
  t½: 0.432 h

B2: mAb25497 (antibody, human IgG4, V domains shown)
VH: QVQLVQSGAEVKEPGASVKVSCKASGYTFTDYYIHWVRQAPGQGLEWMGWINLNSGGKNHAQKFQGRVTVTSDTSINTAYIELGRLRGDDTAVYYCSRGGGSHYYYYYHGMDVWGQGTTVTVSS
VL: DIQMTQSPSSLSASVGDRITITCRASHSIDSYLNWYQQKPGKAPKLLIYPASTLQSGVPSRFSGSGSGTDFTLTISSLQPEDSAIYYCQQSYSTPLTFGGGTKVEIK
[1]
  100 nM Ag Bound (RU): 59 RU
  Kd: 0.279 nM
  koff: 4.56e-05 s⁻¹
  kon: 163000 M⁻¹ s⁻¹
  t½: 4.22 h
hNPR1-mFc:hBNP complex [2]
  100 nM Ag Bound (RU): 59 RU
  Kd: 0.358 nM
  koff: 5.49e-05 s⁻¹
  kon: 153000 M⁻¹ s⁻¹
  t½: 3.51 h
mfNPR1-mFc [3]
  100 nM Ag Bound (RU): 76 RU
  Kd: 0.337 nM
  koff: 5.79e-05 s⁻¹
  kon: 172000 M⁻¹ s⁻¹
  t½: 3.32 h
mfNPR1-mFc:hANP complex [4]
  100 nM Ag Bound (RU): 95 RU
  Kd: 0.24 nM
  koff: 3.75e-05 s⁻¹
  kon: 156000 M⁻¹ s⁻¹
  t½: 5.13 h
mfNPR1-mFc:hBNP complex
  100 nM Ag Bound (RU): 93 RU
  Kd: 0.32 nM
  koff: 4.47e-05 s⁻¹
  kon: 140000 M⁻¹ s⁻¹
  t½: 4.31 h
[5]
  100 nM Ag Bound (RU): 60 RU
  Kd: 2.09 nM
  koff: 0.000102 s⁻¹
  kon: 48500 M⁻¹ s⁻¹
  t½: 1.9 h
hNPR1-mFc:hBNP complex [6]
  100 nM Ag Bound (RU): 59 RU
  Kd: 2.35 nM
  koff: 0.000116 s⁻¹
  kon: 49200 M⁻¹ s⁻¹
  t½: 1.66 h
mfNPR1-mFc [7]
  100 nM Ag Bound (RU): 79 RU
  Kd: 5.2 nM
  koff: 0.000221 s⁻¹
  kon: 42500 M⁻¹ s⁻¹
  t½: 0.872 h
mfNPR1-mFc:hANP complex [8]
  100 nM Ag Bound (RU): 102 RU
  Kd: 2.6 nM
  koff: 0.000152 s⁻¹
  kon: 58400 M⁻¹ s⁻¹
  t½: 1.27 h

B3: mAb25508 (antibody, human IgG4, V domains shown)
VH: EVQLVESGGGVVRPGGSLRLSCAASGFNVDDYGMSWVRQIPGKGLEWISGINWNGGRIYYADSMKGRITISRDNAKNSLYLQMNSLRAEDTALYHCVRDQWLVRGLDYWGQGTLVTVSS
VL: DIQMTQSPSSLSASVGDRVTITCRASQGIYNYLAWFQQKPGKAPKSLIYAASSLQSGVPSKFSGSGSGTDFTLTISSLQPEDFATYYCQQYNTYPYTFGQGTKLEIK
[1]
  100 nM Ag Bound (RU): 199 RU
  Kd: 0.34 nM
  koff: 8.97e-05 s⁻¹
  kon: 264000 M⁻¹ s⁻¹
  t½: 2.15 h
hNPR1-mFc:hBNP complex [2]
  100 nM Ag Bound (RU): 200 RU
  Kd: 0.343 nM
  koff: 8.57e-05 s⁻¹
  kon: 250000 M⁻¹ s⁻¹
  t½: 2.24 h
mfNPR1-mFc [3]
  100 nM Ag Bound (RU): 230 RU
  Kd: 0.116 nM
  koff: 5.98e-05 s⁻¹
  kon: 515000 M⁻¹ s⁻¹
  t½: 3.22 h
mfNPR1-mFc:hANP complex [4]
  100 nM Ag Bound (RU): 224 RU
  Kd: 0.233 nM
  koff: 7.32e-05 s⁻¹
  kon: 314000 M⁻¹ s⁻¹
  t½: 2.63 h
mfNPR1-mFc:hBNP complex
  100 nM Ag Bound (RU): 229 RU
  Kd: 0.29 nM
  koff: 8.91e-05 s⁻¹
  kon: 308000 M⁻¹ s⁻¹
  t½: 2.16 h
[5]
  100 nM Ag Bound (RU): 230 RU
  Kd: 0.506 nM
  koff: 0.000148 s⁻¹
  kon: 293000 M⁻¹ s⁻¹
  t½: 1.3 h
hNPR1-mFc:hBNP complex [6]
  100 nM Ag Bound (RU): 236 RU
  Kd: 0.466 nM
  koff: 0.000164 s⁻¹
  kon: 352000 M⁻¹ s⁻¹
  t½: 1.17 h
mfNPR1-mFc [7]
  100 nM Ag Bound (RU): 268 RU
  Kd: 0.132 nM
  koff: 8.36e-05 s⁻¹
  kon: 634000 M⁻¹ s⁻¹
  t½: 2.3 h
mfNPR1-mFc:hANP complex [8]
  100 nM Ag Bound (RU): 262 RU
  Kd: 0.355 nM
  koff: 0.000146 s⁻¹
  kon: 411000 M⁻¹ s⁻¹
  t½: 1.32 h
